According to doi:10.1101/2024.12.01.626218:

Target: TTF2 1-100 (UniProt Q5NC05)
Experiment: isothermal titration calorimetry
Details: reference: unphosphorylated TRAIP 313-329 peptide; sites T325

Substance: TRAIP 313-329 (from UniProt Q8VIG6) pT325 TRAIP 313-329 peptide
- binding against the reference: gained
